Test results reported in patent US20190225685A1, “ANTI-DLL3 ANTIBODY DRUG CONJUGATES AND METHODS OF USE” (ABBVIE STEMCENTRX LLC, priority 2018, published 2019).

B1: SC16.56 PBD3: anti-DLL3 ADC; comprises the same humanized antibody as found in Rova-T but employs a different PBD cytotoxin (conjugate, chains of the INN, looked up)
VH: QVQLVQSGAEVKKPGASVKVSCKASGYTFTNYGMNWVRQAPGQGLEWMGWINTYTGEPTYADDFKGRVTMTTDTSTSTAYMELRSLRSDDTAVYYCARIGDSSPSDYWGQGTLVTVSS
VL: EIVMTQSPATLSVSPGERATLSCKASQSVSNDVVWYQQKPGQAPRLLIYYASNRYTGIPARFSGSGSGTEFTLTISSLQSEDFAVYYCQQDYTSPWTFGQGTKLEIK
modifications: PBD3 cytotoxin conjugate

Tests used:
[1] = tested on: recurrent/refractory small cell lung cancer (SCLC); conditions: single agent; cited from earlier work
[2] = tested on: GB8 tumors (GBM PDX tumor line); assay: Glioblastoma PDX tumor growth suppression in immunodeficient mice; format: in vivo, female NOD/SCID mice; conditions: single dose 0.2 mg/kg, intraperitoneal, subcutaneous GB8 tumors, 20 days post-treatment (FIG. 3)
Procedure: (§1) A GBM PDX tumor line was grown subcutaneously in the flanks of female NOD/SCID mice using art-recognized techniques. Tumor volumes and mouse weights were monitored once or twice per week. When tumor volumes reached 150-250 mm^3, mice were randomly assigned to treatment groups and injected intraperitoneally with SC16.56 PDB3 or an isotype control human IgG1.PDB3. SC16.56 PDB3 comprises the same humanized antibody as found in Rova-t but employs a different PBD cytotoxin. Following treatment, tumor volumes and mouse weights were monitored until tumors exceeded 1000 mm^3 or mice became sick.

[3] = Adverse health effects in treated tumor-bearing mice; format: in vivo, female NOD/SCID mice; conditions: tumor-bearing NOD/SCID mice treated intraperitoneally
Procedure: as §1

| Molecule | clinical activity [1] | tumor growth (tumor volume) [2] | adverse health effects [3] |
| --- | --- | --- | --- |
| rovalpituzumab tesirine [Rova-T] | clinically demonstrated single agent activity | – | – |
| B1 | – | tumor suppression | did not exhibit any adverse health effects beyond those typically seen in immunodeficient, tumor-bearing NOD/SCID mice |
